According to CN104231083A (GMAX BIOPHARM CO LTD, dated 2014):

B1: 单克隆抗体A-3 (antibody, V domains shown)
VH: EVKLVESGGGLVQPGGSRKLSCAASGFPFSDYGLAWFRQAPGKGPEWVAFISNLAYSTYYADTVTGRFTISRENAKNTLFLEMSSLRSEDTAMYYCARDRGLFDYWGQGTTLTVSS
VL: DVVMTQIPLSLPVSLGDQASISCRSSQSLVHSNGNTYLHWYLQKPGQSPKLLIYKVSNRFSGVPDRFSGSGSGTDFTLKISRVEAEDLGVYFCSQSTHVPPYTFGGGTKLEIKR
notes: Mouse monoclonal antibody; Tested as hybridoma supernatant (FACS) and as purified antibody / antibody supernatant (cAMP assay); also called L3H3
B2: 单克隆抗体A-1 (antibody, V domains shown)
VH: QIQLVQSGPELKKPGETVKISCKASGYTFTNYGMNWVKQAPGKGLKWMGWINTNTGEPTYVEEFKGRFAFSLETSDSTAYLQINNLKNEDTATYFCANLYWGQGTTLTVSS
VL: DVLMTQTPLSLPVSLGDQASISCRSSQNILHSNGNTYLEWYLQKPGQSPKLLIFKVSNRFSGVPDRFSGSGSGTDFTLKISRVEAEDLGVYYCFQGSHVPWTFGGGTKLEIK
notes: Mouse monoclonal antibody; Tested as hybridoma supernatant (FACS) and as purified antibody / antibody supernatant (cAMP assay); also called L1H1
B3: 单克隆抗体A-2 (antibody, V domains shown)
VH: QIQLVQSGPELKKPGETVKISCKASGYTFTNYGMNWVKQAPGKGLKWMGWINTYNGEPTYADDFKGRCAFFLETSASTAYLQLNNLKNEDTATYFCTREYYISNYGAMDYWGQGTSVTVSS
VL: DIQMTQTTSSLSASLGDRVTISCRASQDISNYLNWYQQKPDGTVKLLIYYTSRLHSGVPSRFSGSGSGADYSLTIANLDQEDIATYFCQQGILFPLTFGAGTKLELK
notes: Mouse monoclonal antibody; Tested as hybridoma supernatant (FACS) and as purified antibody / antibody supernatant (cAMP assay); also called L2H2

target: T1, 人胰高血糖素受体 (human glucagon receptor) (human, UniProt P47871 26-477); experiment: flow cytometry, hybridoma supernatant on CHO-DHFR-hGCGR cells
T1 construct: Overexpressed on stably transfected CHO-DHFR- cells; also called hGCGR; GCGR
T1 sequence (P47871 26-477 limits assumed): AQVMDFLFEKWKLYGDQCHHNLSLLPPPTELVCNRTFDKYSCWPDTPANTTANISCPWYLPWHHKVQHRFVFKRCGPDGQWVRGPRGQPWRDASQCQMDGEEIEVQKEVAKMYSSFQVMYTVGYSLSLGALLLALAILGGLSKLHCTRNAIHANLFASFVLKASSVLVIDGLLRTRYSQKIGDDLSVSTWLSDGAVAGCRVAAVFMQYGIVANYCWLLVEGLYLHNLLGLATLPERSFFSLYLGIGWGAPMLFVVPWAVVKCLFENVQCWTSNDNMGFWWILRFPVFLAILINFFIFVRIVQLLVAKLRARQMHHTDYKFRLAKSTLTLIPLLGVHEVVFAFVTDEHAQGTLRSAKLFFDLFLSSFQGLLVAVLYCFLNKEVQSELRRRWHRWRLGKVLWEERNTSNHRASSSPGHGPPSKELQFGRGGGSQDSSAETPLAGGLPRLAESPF

Binding result, binds:
B1
B2
B3
